Measured values: paper PMC9303331, “Novel agonist and antagonist radioligands for the GLP‐2 receptor. Useful tools for studies of basic GLP‐2 receptor pharmacology” (British Journal of Pharmacology, 2022)
Where two headings read alike, the source gives them in different places. One block for each molecule: values may come before it.

What was measured:
[1] = molecular target: T1, mGLP‐1 receptor (mouse, UniProt O35659 22-463)
T1 construct: mouse glucagon-like peptide-1 receptor, pcDNA3.1(+) plasmid from ThermoFisher; also called mouse GLP‐1 receptor; source: COS-7, transiently transfected (pcDNA3.1(+)), on whole cells
T1 sequence (looked up): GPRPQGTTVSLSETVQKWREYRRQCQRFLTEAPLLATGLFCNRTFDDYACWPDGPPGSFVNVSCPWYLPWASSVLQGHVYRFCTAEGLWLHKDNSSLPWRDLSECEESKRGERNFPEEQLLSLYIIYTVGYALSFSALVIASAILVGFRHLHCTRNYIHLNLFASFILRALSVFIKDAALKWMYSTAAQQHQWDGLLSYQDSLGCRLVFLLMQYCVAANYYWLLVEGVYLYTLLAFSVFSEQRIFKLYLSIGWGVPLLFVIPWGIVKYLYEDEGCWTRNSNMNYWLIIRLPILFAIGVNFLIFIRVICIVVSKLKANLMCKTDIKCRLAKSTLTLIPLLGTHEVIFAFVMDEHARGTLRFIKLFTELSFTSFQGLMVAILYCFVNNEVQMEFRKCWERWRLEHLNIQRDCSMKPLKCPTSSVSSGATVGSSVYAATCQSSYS

[2] = molecular target: T1, mGLP‐1 receptor; remark: listed apart in the source
[3] = molecular target: T2, mGLP‐2 receptor (mouse, UniProt Q5IXF8 1-512); conditions: one partner purified
T2 construct: mouse glucagon-like peptide-2 receptor, pcDNA3.1(+) plasmid from ThermoFisher; also called mouse GLP‐2 receptor; source: COS-7, transiently transfected (pcDNA3.1(+)), on whole cells
T2 sequence (looked up): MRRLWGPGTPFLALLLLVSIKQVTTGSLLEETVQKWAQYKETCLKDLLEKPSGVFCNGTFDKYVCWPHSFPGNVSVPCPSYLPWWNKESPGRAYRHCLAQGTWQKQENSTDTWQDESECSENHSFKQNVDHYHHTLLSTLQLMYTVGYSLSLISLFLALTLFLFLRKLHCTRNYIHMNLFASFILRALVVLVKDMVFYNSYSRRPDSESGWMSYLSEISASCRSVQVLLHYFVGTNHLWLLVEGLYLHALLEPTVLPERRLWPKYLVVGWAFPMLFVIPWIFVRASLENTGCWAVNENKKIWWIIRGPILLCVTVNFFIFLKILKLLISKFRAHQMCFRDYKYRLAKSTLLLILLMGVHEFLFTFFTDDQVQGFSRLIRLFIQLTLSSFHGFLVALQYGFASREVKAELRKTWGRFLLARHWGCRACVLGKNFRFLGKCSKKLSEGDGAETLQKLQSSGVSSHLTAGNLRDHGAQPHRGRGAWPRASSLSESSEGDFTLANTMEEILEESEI

[4] = molecular target: T1, mGLP‐1 receptor; conditions: one partner purified
[5] = molecular target: T3, rGLP‐2 receptor (rat, UniProt Q9Z0W0 1-550); conditions: one partner purified
T3 construct: rat glucagon-like peptide-2 receptor, pcDNA3.1(+) plasmid from ThermoFisher; also called rat GLP‐2 receptor; source: COS-7, transiently transfected (pcDNA3.1(+)), on whole cells
T3 sequence (looked up): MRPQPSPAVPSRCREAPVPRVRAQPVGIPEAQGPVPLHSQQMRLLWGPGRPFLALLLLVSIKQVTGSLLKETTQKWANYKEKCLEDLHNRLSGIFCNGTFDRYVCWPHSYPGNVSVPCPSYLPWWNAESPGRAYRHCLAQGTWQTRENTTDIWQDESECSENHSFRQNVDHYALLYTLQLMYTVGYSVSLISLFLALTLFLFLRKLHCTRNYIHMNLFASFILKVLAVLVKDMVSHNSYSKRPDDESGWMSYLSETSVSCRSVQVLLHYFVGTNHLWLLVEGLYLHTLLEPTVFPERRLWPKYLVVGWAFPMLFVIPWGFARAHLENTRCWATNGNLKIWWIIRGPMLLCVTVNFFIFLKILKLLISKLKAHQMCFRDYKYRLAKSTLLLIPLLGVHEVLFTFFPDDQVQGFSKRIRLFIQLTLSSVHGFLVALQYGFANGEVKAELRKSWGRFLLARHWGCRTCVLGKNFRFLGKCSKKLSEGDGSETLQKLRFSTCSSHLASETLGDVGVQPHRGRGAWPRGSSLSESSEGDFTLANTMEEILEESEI

[6] = molecular target: T2, mGLP‐2 receptor; conditions: one partner purified; remark: listed apart in the source
[7] = molecular target: T1, mGLP‐1 receptor; conditions: one partner purified; remark: listed apart in the source
[8] = molecular target: T3, rGLP‐2 receptor; conditions: one partner purified; remark: listed apart in the source

% max (specific binding of the radioligand, normalised to its binding to the mGLP-2 receptor) [1]: 84.5%
Molecule: [^125I]‐hGLP‐2(1–33,M10Y) (peptide)

% max (specific binding of the radioligand, normalised to its binding to the mGLP-2 receptor) [2]: 93.3%
Molecule: [^125I]‐hGLP‐2(3–33,M10Y) (peptide)

Ki [3]: 18 nM | pIC50 [3]: 7.7 | Ki [4]: 183 nM | pIC50 [4]: 6.7 | Ki [5]: 6.5 nM | pIC50 [5]: 8.2 | Ki [6]: 6.6 nM | pIC50 [6]: 8.2 | Ki [7]: 208 nM | pIC50 [7]: 6.7 | Ki [8]: 5.4 nM | pIC50 [8]: 8.3
Molecule: HADGSFSDEMNTILDNLAARDFINWLIQTKITD [hGLP‐2(1–33)]
